{
  "source": "patent US6376240",
  "molecular_target": "recombinant His6-RFLAT-1 (C-terminal portion of RFLAT-1, amino acids 59-288)",
  "sequence (chain, as listed by the source)": "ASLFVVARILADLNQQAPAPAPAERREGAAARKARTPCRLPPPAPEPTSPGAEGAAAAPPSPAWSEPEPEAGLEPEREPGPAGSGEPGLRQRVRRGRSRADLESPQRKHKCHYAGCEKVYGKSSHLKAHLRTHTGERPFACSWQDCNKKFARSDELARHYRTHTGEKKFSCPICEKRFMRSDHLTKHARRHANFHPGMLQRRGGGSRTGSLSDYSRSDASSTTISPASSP",
  "data": [
    {"protein": "ERK1 kinase (protein) MAAAAAQGGGGGEPRRTEGVGPGVPGEVEMVKGQPFDVGPRYTQLQYIGEGAYGMVSSAYDHVRKTRVAIKKISPFEHQTYCQRTLREIQILLRFRHENVIGIRDILRASTLEAMRDVYIVQDLMETDLYKLLKSQQLSNDHICYFLYQILRGLKYIHSANVLHRDLKPSNLLINTTCDLKICDFGLARIADPEHDHTGFLTEYVATRWYRAPEIMLNSKGYTKSIDIWSVGCILAEMLSNRPIFPGKHYLDQLNHILGILGSPSQEDLNCIINMKARNYLQSLPSKTKVAWAKLFPKSDSKALDLLDRMLTFNPNKRITVEEALAHPYLEQYYDPTDEPVAEEPFTFAMELDDLPKERLKELIFQETARFQPGVLEAP", "values": [
      {"measurement": "phosphorylation of recombinant RFLAT-1 by kinase (control)", "value": "As controls, ERK1 kinase does not"}
    ]}
  ]
}
